# Data from patent US20210284747A1 (CAPELLA BIOSCIENCE, published 2021).
# Where a chain is given by its changes, count along the chain named.
# B1: 3B04_var8 (antibody, V domains shown)
# VH: QVQLVQSGAEVKKPGASVKVSCKASGYTFTDYEMHWVRQAPGQGLEWMGEIDPETGDTAYAQKFQGRVTLTADKSTSTAYMELSSLRSEDTAVYYCSRETDYFFDYWGQGTLVTVSS
# VL: DIQMTQSPSSLSASVGDRVTITCGASENIYGALNWYQRKQGKAPKLLIYGATNLADGVPSRFSGSGSGRDYTLTISSLQPEDFATYYCQNVLTTPWTFGQGTKLEIKR
# B2: 3B04_var6 (antibody, V domains shown)
# VH: B1 VH with M48I, A61S, L83F
# VL: B1 VL
# B3: 3B04_var5 (antibody, V domains shown)
# VH: B1 VH with M48I, A61S, Q65K, V68A, L83F
# VL: B1 VL
# B4: 3B04_var12 (antibody, V domains shown)
# VH: B1 VH
# VL: B1 VL with R38Q, Q40P
# B5: 3D12_var2 (antibody, V domains shown)
# VH: B1 VH with G26D, Y32S, M34I, M48I, D57G, A61N
# VL: B1 VL with K45Q, P59S, F83V, T93S
# B6: 3B04_var10 (antibody, V domains shown)
# VH: B1 VH with M48I, A61S, L83F
# VL: B1 VL with R38Q, Q40P
# B7: 3D12_var9 (antibody, V domains shown)
# VH: B1 VH with G26D, Y32S, M34I, M48I, D57G, A61N, Q65K, V68A
# VL: B1 VL with R38Q, Q40P, F83V, T93S
# B8: 3B04_var1 (antibody, V domains shown)
# VH: B1 VH with M48I, A61S, Q65K, V68A, L83F
# VL: B1 VL with K45Q, P59S
# B9: 3B04_var4 (antibody, V domains shown)
# VH: B1 VH
# VL: B1 VL with K45Q, P59S
# B10: 3D12_var3 (antibody, V domains shown)
# VH: B1 VH with G26D, Y32S, M34I, D57G
# VL: B1 VL with K45Q, P59S, F83V, T93S
# B11: 3D12_var1 (antibody, V domains shown)
# VH: B1 VH with G26D, Y32S, M34I, M48I, D57G, A61N, Q65K, V68A
# VL: B1 VL with K45Q, P59S, F83V, T93S
# B12: 3B04_var2 (antibody, V domains shown)
# VH: B1 VH with M48I, A61S, L83F
# VL: B1 VL with K45Q, P59S
# B13: 3D12_var7 (antibody, V domains shown)
# VH: B1 VH with G26D, Y32S, M34I, D57G
# VL: B1 VL with F83V, T93S
# B14: 3D12_var5 (antibody, V domains shown)
# VH: B1 VH with G26D, Y32S, M34I, M48I, D57G, A61N, Q65K, V68A
# VL: B1 VL with F83V, T93S
# B15: 3D12_var6 (antibody, V domains shown)
# VH: B1 VH with G26D, Y32S, M34I, M48I, D57G, A61N
# VL: B1 VL with F83V, T93S
# B16: 3B04_var9 (antibody, V domains shown)
# VH: B1 VH with M48I, A61S, Q65K, V68A, L83F
# VL: B1 VL with R38Q, Q40P
# Target: LIGHT without residues 81-84, stably expressed on EL4 cells (EL4-NC-LIGHT)
# Assay: cell-based or functional assay
row,Binder,"IC50, inhibition of IL-8 secretion, HT-29 + EL4-NC-LIGHT cells [nM]"
1,B1,0.05
2,B2,0.08
3,B3,0.04
4,B4,0.07
5,B5,0.74
6,B6,0.04
7,B7,0.71
8,B8,0.05
9,B9,0.04
10,B10,0.53
11,B11,0.33
12,B12,0.06
13,B13,0.54
14,B14,0.59
15,B15,0.47
16,B16,0.09
